Laboratory results reported in US20230322908A1 (AC IMMUNE, published 2023).
Positions count from the first letter of the chain named.

T1: TP-51 peptide (aa 352-414 of SEQ ID NO:1) (human)
T1 construct: Synthetic peptide (Pepscan)
T1 peptide: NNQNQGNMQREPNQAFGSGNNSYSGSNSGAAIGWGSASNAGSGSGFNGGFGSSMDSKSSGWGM

B1: cACI-7069-633B12-Ab1 (human IgG1 chimeric) (antibody, V domains shown)
VH: EVQLQQSGPELVKPGASVKISCKTSGFTFTEYSMHWVKQSHGKSLEWIGGINPNNGGTSYNQKFKGKATLTVDKSSSTAYMELRSLTSEDSAVYYCARESWGQGTTLTVSS
VL: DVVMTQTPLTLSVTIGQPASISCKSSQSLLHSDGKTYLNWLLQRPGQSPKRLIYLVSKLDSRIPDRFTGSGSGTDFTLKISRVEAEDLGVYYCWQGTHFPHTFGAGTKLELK
notes: also called chimeric antibody
B2: hACI-7069-633B12-Ab1_H16L14 (IgG1) (antibody, V domains shown)
VH: EVQLVQSGAEVKKPGASVKVSCKASGFTFTEYSMHWVRQAPGQRLEWMGGINPGNAGTSYNQKFKGRVTITVDTSASTAYMELSSLRSEDTAVYYCARESWGQGTTVTVSS
VL: DVVMTQSPLSLPVTLGQPASISCKSSQSLLHSDAKTYLNWLQQRPGQSPRRLIYLVSKLDSGVPDRFSGSGSGTDFTLKISRVEAEDLGVYYCFQGTHFPHTFGQGTKLEIK
notes: Human IgG1 / kappa
B3: hACI-7069-633B12-Ab1_H23L20 (IgG1) (antibody, V domains shown)
VH: B2 VH with E1Q, A24T, M48I, A56G
VL: B2 VL with A34G, G62R, F94W
notes: Human IgG1 / kappa
B4: hACI-7069-633B12-Ab1_H15L18 (IgG1) (antibody, V domains shown)
VH: B2 VH with E1Q
VL: B2 VL with G62R
notes: Human IgG1 / kappa
B5: hACI-7069-633B12-Ab1_H20L19 (IgG1) (antibody, V domains shown)
VH: B2 VH with A24T, M48I
VL: B2 VL with R50K, G62R
notes: Human IgG1 / kappa
B6: hACI-7069-633B12-Ab1_H19L18 (IgG1 isotype) (antibody, V domains shown)
VH: B2 VH with E1Q, A24T, M48I
VL: B2 VL with G62R
notes: Human IgG1 / kappa; also called hACI-7069-633B12-Ab1_H19L18 (hIgG1 isotype)
B7: hACI-7069-633B12-Ab1_H19L18 (IgG4) (antibody, V domains shown)
VH: B2 VH with E1Q, A24T, M48I
VL: B2 VL with G62R
B8: hACI-7069-633B12-Ab1_H17L14 (IgG4) (antibody, V domains shown)
VH: B2 VH with E1Q, R38K
VL: B2 VL
B9: hACI-7069-633B12-Ab1_H19L17 (IgG4) (antibody, V domains shown)
VH: B2 VH with E1Q, A24T, M48I
VL: B2 VL with Q42L
B10: hACI-7069-633B12-Ab1_H20L19 (IgG4) (antibody, V domains shown)
VH: B2 VH with A24T, M48I
VL: B2 VL with R50K, G62R
B11: hACI-7069-633B12-Ab1_H20L18 (IgG4) (antibody, V domains shown)
VH: B2 VH with A24T, M48I
VL: B2 VL with G62R
B12: hACI-7069-633B12-Ab1_H19L19 (IgG4) (antibody, V domains shown)
VH: B2 VH with E1Q, A24T, M48I
VL: B2 VL with R50K, G62R

molecular target: T2, recombinant human full-length TDP-43 (TAR DNA-binding protein 43), soluble (human, UniProt Q13148 1-414); assay: SPR 8K, immobilized soluble TDP-43; IgG1
T2 construct: Used on Luminex beads, coated on ELISA plates, and immobilized or injected in SPR; also called FL TDP-43; TDP-43 protein
T2 sequence (Q13148 whole entry): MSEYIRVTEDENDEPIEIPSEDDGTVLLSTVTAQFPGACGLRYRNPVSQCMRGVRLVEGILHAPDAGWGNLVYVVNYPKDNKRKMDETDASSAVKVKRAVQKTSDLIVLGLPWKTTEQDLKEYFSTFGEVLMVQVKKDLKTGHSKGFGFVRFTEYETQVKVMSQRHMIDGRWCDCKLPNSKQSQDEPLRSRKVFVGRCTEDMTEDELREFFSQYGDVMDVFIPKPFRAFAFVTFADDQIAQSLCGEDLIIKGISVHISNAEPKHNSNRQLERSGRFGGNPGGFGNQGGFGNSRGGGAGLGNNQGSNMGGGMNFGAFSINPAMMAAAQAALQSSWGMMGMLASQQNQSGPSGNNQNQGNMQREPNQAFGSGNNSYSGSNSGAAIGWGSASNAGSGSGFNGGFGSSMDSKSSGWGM
Method: (§1) The instrument was primed with running buffer PBS-P+ and flow cells (Fc) 1 and 2 of channels 1-8 were activated with a fresh solution of EDC/NHS (Amine Coupling Kit, 1:1 ratio of both reagents, GE Healthcare Life Sciences, BR-1006-33) at 10 µL/min for 420 sec. Soluble TDP-43 (Selvita) was diluted in sodium acetate pH 4.5 to a final concentration of 5 µg/mL and injected for 900 sec with a flow rate of 5 µL/min on Fc 2. All flow cells were quenched with 1 M ethanol amine (GE Healthcare Life Sciences, BR-1006-33), at 10 µL/min for 420 sec. Immobilization levels after ethanolamine quenching were 680 RU on all eight channels. Prior to analysis, two Startup cycles were run. Increasing mAbs concentrations were injected in single-cycle kinetics ranging from 1.2 to 100 nM, prepared from a 3-fold serial dilution in running buffer, with a contact time of 300 sec and a dissociation time of 900 sec at a flow rate of 30 µL/min. Each cycle was followed by one regeneration using 10 mM Glycine-HCl pH 1.7 with a contact time of 30 sec at 30 µL/min, followed by a stabilization period of 300 sec. Results obtained from single-cycle kinetics were double-referenced using the blank Fc 1 and buffer cycles and evaluated using Biacore 8 K evaluation software using the 1:1 kinetic fit model with RI and global Rmax. The following kinetic parameters were obtained: association rate constant (ka), dissociation rate constant (kd), affinity constant (KD) and saturation response (Rmax).

Row | Binder | Kd [nM] | koff [s⁻¹] | kon [M⁻¹ s⁻¹]
1 | B1 | 0.15 | 8.4e-06 | 58000
2 | B2 | 0.652 | 2.2e-05 | 47000
3 | B3 | 0.145 | 6.4e-06 | 44000
4 | B4 | 0.113 | 8.3e-06 | 74800
5 | B5 | 0.235 | 1.8e-05 | 47000
6 | B6 | 0.205 | 9.6e-06 | 48000

Molecular target: T1, TP-51 peptide (aa 352-414 of SEQ ID …)
Assay: SPR 8K, mAb captured, TP-51 injected; IgG1
Method: (§2) The instrument was primed with running buffer PBS-P+. Fc 1-2 of channels 1-8 (8 K) were activated with a fresh solution of EDC/NHS(Amine Coupling Kit, 1:1 ratio of both reagents, GE Healthcare Life Sciences, BR-1006-33) at 10 µL/min for 420 sec and goat anti-human antibody (GE Healthcare Life Sciences, 29234600) was immobilized at 25 µg/mL in 10 mM sodium acetate pH 5 for 420 sec. Next, all Fc were quenched with 1 M ethanol amine(GE Healthcare Life Sciences, BR-1006-33), for 420 sec. Any non-covalently bound antibodies were removed by two regenerations with 10 mM Glycine-HCl pH 1.7 for 30 sec. Immobilization levels were evaluated following ethanolamine quenching (10000 RU for all channels).
(§3) Each cycle started with non-covalent capture of humanized variants which were diluted in running buffer to a final concentration of 2 µg/mL and injected for 60 sec with a flow rate of 10 µL/min. TDP-43 mAbs were captured on channels 1-8, leaving Fc 1 as a blank Fc. Capture levels were evaluated following a 120 sec stabilization period after each mAb injection and ranged from 300-500 RU.
(§4) Injections of TP-51 peptide (Pepscan) were performed in single-cycle kinetics with increasing concentrations ranging from 1.2-100 nM prepared from serial 3-fold dilutions. Injections were performed with contact times of 300 sec/injection at a flow rate of 25 µL/min. A dissociation phase of 3600 sec followed the final injection. Sensor surface was regenerated by one injection of 10 mM Glycine-HCl pH 1.7 at a flow rate of 10 µL/min for 120 sec, followed by a stabilization period of 300 sec. Results obtained from single-cycle kinetics were double-referenced using the blank Fc 1 and buffer cycles and evaluated by Biacore 8 K evaluation software with 1:1 kinetic fit model with RI and global Rmax. The following kinetic parameters were obtained: association rate constant (ka), dissociation rate constant (kd), affinity constant (KD) and saturation response (Rmax).

Row | Binder | Kd [nM] | koff [s⁻¹] | kon [M⁻¹ s⁻¹]
7 | B1 | 2.4 | 9.3e-05 | 39000
8 | B2 | 6.4 | 0.0011 | 170000
9 | B3 | 6.2 | 0.00021 | 35000
10 | B5 | 1.4 | 0.00023 | 170000
11 | B6 | 2.8 | 0.00015 | 53000

molecular target: T2, recombinant human full-length TDP-43 …; assay: SPR 8K, immobilized soluble TDP-43
Method: as §1

Row | Binder | Kd [nM] | koff [s⁻¹] | kon [M⁻¹ s⁻¹]
12 | B7 | 0.431 | 1.4e-05 | 33000
13 | B8 | 1.34 | 4.2e-05 | 31000
14 | B9 | 1.38 | 3.5e-05 | 26000
15 | B10 | 0.684 | 1.9e-05 | 27000
16 | B11 | 0.45 | 1.4e-05 | 32000
17 | B12 | 0.508 | 1.5e-05 | 29000

Molecular target: T1, TP-51 peptide (aa 352-414 of SEQ ID …)
Assay: SPR 8K, mAb captured, TP-51 injected
Method: as §2, §3, §4

Row | Binder | Kd [nM] | koff [s⁻¹] | kon [M⁻¹ s⁻¹]
18 | B7 | 1.9 | 0.00023 | 120000
19 | B8 | 9 | 0.0012 | 130000
20 | B9 | 13.1 | 0.00093 | 70000
21 | B10 | 2.9 | 0.00026 | 90000
22 | B11 | 2.1 | 0.00021 | 97000
23 | B12 | 2.3 | 0.00026 | 110000
